{
  "source": "patent US12692310B2",
  "about": "“ASIC1 channel antagonist antibody” (ShanghaiTech University, priority 2019, dated 2026)",
  "molecules": {"B1": {"name": "ASC06-IgG1: ASC06 antibody converted into a full length IgG1 form (antibody, V domains shown)", "VH": "QVQLQQSGGGLVQPGGSLRLSCAASGFTFSSYAMSWVRQAPGKGLEWVSAISGSGGSTYYADSVKGRFTISRDNSKNTLYLQMNSLRAEDTAVYYCAKDSFYGYSKGDWGQGTLVTVSS", "VL": "QSALTQPASVSGSPGQSITISCTGTSSDVGAYNYVSWYQQQPGKAPKLMIYGVSNRPSGVSNRFSGSKSGNAASLTISGLQAEDEADYYCSSYTSSSTYVFGTGTKLTVLG"}},
  "type_in_all_cases": "cell-based",
  "key": {"[1]": {"target": "T1, hASIC2a (Homo sapiens, UniProt Q16515)", "T1 construct": "expressed in transfected cells; host or cells: CHO-K1, transient", "T1 sequence (Q16515 1-512)": "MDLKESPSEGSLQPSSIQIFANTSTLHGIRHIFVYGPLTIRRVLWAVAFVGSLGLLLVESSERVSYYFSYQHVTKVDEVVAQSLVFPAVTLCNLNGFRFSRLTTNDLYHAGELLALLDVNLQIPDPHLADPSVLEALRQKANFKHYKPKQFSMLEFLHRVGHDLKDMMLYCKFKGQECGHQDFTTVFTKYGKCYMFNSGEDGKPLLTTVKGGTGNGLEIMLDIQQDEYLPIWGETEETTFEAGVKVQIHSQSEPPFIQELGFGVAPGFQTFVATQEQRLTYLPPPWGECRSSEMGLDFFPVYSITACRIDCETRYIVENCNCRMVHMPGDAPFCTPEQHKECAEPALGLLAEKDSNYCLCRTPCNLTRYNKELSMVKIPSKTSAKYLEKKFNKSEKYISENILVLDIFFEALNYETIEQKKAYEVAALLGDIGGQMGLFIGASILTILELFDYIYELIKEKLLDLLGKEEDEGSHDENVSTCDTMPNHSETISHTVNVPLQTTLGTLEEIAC", "assay": "Subtype selectivity, FACS binding, transfected CHO-K1 cells", "experimental": "(§1) To test the species and subtype selectivity of ASC06-IgG1, vectors encoding human ASIC1b-eYFP fusion, rat ASIC1a-eYFP fusion, mouse ASIC1a-eYFP fusion, hASIC2a-eYFP fusion, hASIC2b-eYFP fusion, and hASIC3a-eYFP fusion were constructed. The CHO-K1 cells were transiently transfected with these plasmids. FACS binding assay and immunocytochemistry (ICC) were carried out to determine if ASC06-IgG1 is able to bind to the cell surface-expressed ASIC homologs and isotypes."}, "[2]": {"target": "T2, hASIC2a/2b (Homo sapiens, UniProt Q16515)", "T2 construct": "expressed in transfected cells; host or cells: CHO-K1, transient", "T2 sequence (Q16515 1-512)": "T1 sequence (Q16515 1-512)", "T2 sequence (Q16515 1-563 isoform Q16515-2)": "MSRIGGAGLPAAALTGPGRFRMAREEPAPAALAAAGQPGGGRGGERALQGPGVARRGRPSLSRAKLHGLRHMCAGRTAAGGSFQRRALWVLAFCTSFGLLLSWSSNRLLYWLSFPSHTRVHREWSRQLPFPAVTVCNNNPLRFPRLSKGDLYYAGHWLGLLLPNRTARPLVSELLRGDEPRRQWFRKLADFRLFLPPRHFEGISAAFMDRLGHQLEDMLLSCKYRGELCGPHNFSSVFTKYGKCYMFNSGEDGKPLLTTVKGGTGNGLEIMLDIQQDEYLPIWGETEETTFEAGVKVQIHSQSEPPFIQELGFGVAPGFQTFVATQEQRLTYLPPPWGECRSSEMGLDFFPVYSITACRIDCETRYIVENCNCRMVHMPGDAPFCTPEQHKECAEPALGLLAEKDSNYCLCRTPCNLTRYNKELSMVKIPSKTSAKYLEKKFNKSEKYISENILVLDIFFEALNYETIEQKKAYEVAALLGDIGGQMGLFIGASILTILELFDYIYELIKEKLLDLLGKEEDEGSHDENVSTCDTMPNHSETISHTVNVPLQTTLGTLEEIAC", "assay": "Subtype selectivity, FACS binding, transfected CHO-K1 cells", "experimental": "as §1"}, "[3]": {"target": "T3, hASIC1a (Homo sapiens, UniProt P78348)", "T3 construct": "expressed in transfected cells", "T3 sequence (P78348 1-528)": "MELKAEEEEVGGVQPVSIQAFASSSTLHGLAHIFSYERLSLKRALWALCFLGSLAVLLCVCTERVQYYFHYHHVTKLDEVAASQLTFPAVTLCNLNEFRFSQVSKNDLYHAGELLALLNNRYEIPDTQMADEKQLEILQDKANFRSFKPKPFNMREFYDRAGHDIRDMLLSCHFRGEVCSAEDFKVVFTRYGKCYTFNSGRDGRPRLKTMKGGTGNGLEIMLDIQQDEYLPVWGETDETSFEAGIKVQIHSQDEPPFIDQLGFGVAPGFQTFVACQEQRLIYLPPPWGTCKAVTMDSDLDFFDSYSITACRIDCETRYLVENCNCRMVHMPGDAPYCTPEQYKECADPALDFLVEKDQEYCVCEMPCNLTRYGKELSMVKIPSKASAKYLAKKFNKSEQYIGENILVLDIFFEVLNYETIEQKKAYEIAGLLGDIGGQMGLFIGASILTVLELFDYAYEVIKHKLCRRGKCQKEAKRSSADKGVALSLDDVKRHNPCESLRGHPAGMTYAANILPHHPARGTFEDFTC", "assay": "Whole-cell patch clamp, acid-induced hASIC1a currents in stable CHO-K1 cells", "experimental": "Electrophysiological Experiments. The inward cellular ASIC1a current was recorded from a single cell using standard whole-cell recording techniques by a patch-clamp amplifier (Axon 200B; Axon Instruments). Membrane currents were sampled and analyzed using a Digidata 1320A interface and a personal computer with Clampex and Clampfit software (Version 9.0.1; Axon Instruments). For a typical experiment, the extracellular fluid (ECF) used contained 150 mM NaCl, 5 mM KCl, 10 mM HEPES, 10 mM D-glucose, 2 mM CaCl2, and 1.0 mM MgCl2, with the osmotic pressure in the range of 320-335 mOsm, and pH 7.4 adjusted with 5 M NaOH. Patch electrodes (4-6 MΩ) contained 30 mM NaCl, 120 mM KCl, 0.5 mM CaCl2, 1 mM MgCl2, 10 mM HEPES, 2 mM MgATP, and 5 mM EGTA (pH 7.2 adjusted with 5 M KOH) at 300 mOsm. The ASIC1a activating ECF is identical to the normal ECF, except that MES was used to replace HEPES to maintain the ECF at pH 6.0. A coverslip with discretely distributed individual CHO-ASIC1a stable cells (6H7) on the surface was placed into a recording chamber under a constant perfusion (~2-3 mL/min) generated by an ALA 8 channel perfusion system (ALA Scientific Instruments Inc.) mounted on an inverted microscope. After achieving the break-in (whole-cell) configuration, the cell was voltage clamped at a holding potential of −70 mV. The normal ECF (pH 7.4) was first perfused onto the patched cell, and then, the activating ECF of pH 6.0 was rapidly applied to elicit a maximum inward ASIC1a current as control current. When testing the inhibition effect of the antibody, ECFs of pH 7.4 containing different concentrations of ASC06-IgG1 were perfused from low to high concentration into the recording chamber for 10-15 min. To measure the inhibition of the current, the activating ECFs of pH 6.0 containing the corresponding concentrations of the testing antibodies were applied to the same patched 6H7 cell to generate the inward currents that can be normalized to the control current of the same cell. […] Data acquired from four to five cells were used for statistical calculation of inhibition effects.\nThe function of ASC06-IgG1 was characterized using electrophysiology approach. The effect of ASC06-IgG1 antibody on the acid-induced, hASIC1a-mediated electrical current in cells was analyzed. PcTx1 was used as a positive control. […] The amplitudes of the hASIC1a-mediated inward currents of the stable cells were recorded and quantitated in the absence and presence of ASC06-IgG1, with venom peptide PcTx1 (100 nM) used as positive control. […] Unlike the sustained inhibition with the antibody after washing, the inhibition with PcTx1 could be readily washed out within 5 minutes (FIG. 5C)."}},
  "data": [
    {"molecule": "B1", "values": [
      {"measurement": "FACS recognition of hASIC2a", "setting": "[1]", "result": "not"},
      {"measurement": "FACS recognition of hASIC2a/2b", "setting": "[2]", "result": "not"},
      {"measurement": "duration of sustained inhibition during washout", "setting": "[3]; after washing", "result": 30, "unit": "min"},
      {"measurement": "maximal inhibition of the acid (pH 6.0)-induced currents", "setting": "[3]; dose-dependent", "result": "up to 80%"}
    ]}
  ]
}
